According to the supplement of paper PMC10065799, “High-throughput profiling of sequence recognition by tyrosine kinases and SH2 domains using bacterial peptide display” (eLife, 2023):

What was measured:
Grb2 SH2 = Grb2 SH2 (UniProt P62993); experiment: SH2 binding enrichment of the phosphorylated peptide, bacterial display (enrichment ratio); higher = better substrate or ligand; peptides without Tyr show the background
c-Src SH2 = experiment: as above
SHP2-C SH2 = experiment: as above
c-Src = experiment: phosphorylation enrichment, bacterial display (enrichment ratio); higher = better substrate or ligand; peptides without Tyr show the background
AncSZ = experiment: as above
EPHB1 = EPHB1 (UniProt P54762); experiment: as above
Fes = Fes (UniProt P07332); experiment: as above
Fes, sequence (P07332 whole entry, looked up): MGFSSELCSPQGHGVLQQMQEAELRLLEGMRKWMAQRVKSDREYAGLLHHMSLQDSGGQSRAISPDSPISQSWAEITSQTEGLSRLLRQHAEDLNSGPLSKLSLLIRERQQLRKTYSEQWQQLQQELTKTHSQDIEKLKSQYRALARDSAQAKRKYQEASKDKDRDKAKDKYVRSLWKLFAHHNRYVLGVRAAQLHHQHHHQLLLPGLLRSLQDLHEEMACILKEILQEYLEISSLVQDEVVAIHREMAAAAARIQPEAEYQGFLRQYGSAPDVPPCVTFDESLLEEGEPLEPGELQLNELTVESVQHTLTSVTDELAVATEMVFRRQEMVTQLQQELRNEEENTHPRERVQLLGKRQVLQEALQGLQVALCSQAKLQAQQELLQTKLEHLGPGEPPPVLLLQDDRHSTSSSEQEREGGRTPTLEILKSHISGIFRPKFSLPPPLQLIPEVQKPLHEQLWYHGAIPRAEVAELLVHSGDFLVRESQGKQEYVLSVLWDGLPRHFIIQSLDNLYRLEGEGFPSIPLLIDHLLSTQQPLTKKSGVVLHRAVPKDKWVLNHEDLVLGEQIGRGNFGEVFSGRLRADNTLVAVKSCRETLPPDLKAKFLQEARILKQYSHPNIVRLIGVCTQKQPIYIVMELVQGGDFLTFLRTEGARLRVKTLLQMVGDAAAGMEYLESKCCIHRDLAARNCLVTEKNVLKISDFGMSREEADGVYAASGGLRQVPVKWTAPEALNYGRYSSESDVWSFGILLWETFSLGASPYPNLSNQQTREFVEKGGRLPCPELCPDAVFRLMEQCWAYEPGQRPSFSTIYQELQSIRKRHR

Fyn = Fyn (UniProt P06241); experiment: as above
Fyn, sequence (P06241 whole entry, looked up): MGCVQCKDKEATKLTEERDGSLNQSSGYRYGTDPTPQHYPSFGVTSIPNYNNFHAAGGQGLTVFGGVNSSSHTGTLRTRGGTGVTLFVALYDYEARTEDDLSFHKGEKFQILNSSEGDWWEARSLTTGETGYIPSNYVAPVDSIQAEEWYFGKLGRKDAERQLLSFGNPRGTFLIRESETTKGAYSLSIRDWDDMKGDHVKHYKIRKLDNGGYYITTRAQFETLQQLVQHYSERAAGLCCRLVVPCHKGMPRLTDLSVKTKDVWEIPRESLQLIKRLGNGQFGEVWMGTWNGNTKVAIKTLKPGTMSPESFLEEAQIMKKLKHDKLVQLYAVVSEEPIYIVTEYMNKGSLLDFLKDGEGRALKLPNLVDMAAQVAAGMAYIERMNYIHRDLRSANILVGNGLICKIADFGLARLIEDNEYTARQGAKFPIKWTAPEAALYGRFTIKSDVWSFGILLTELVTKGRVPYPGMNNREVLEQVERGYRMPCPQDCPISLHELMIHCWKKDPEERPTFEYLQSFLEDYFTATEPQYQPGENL

Jak2 = Jak2 (UniProt O60674); experiment: as above
Hck = Hck (UniProt P08631); experiment: as above
Hck, sequence (P08631 whole entry, looked up): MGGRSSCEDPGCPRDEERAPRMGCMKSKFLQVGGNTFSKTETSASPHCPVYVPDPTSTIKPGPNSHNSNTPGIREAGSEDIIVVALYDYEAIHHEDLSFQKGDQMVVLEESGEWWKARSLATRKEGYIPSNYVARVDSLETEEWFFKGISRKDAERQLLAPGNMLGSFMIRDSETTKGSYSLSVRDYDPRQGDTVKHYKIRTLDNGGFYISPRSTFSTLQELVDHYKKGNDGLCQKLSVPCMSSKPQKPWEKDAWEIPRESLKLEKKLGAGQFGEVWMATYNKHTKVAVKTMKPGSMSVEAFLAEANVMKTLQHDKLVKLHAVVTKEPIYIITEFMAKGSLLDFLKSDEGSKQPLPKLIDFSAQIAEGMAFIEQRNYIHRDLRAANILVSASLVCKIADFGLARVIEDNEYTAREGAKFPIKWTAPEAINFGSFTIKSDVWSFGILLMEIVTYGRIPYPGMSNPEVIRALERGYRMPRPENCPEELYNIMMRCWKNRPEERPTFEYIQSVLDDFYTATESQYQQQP

EPHB2 = EPHB2 (UniProt P29323); experiment: as above
EPHB2, sequence (P29323 whole entry, looked up): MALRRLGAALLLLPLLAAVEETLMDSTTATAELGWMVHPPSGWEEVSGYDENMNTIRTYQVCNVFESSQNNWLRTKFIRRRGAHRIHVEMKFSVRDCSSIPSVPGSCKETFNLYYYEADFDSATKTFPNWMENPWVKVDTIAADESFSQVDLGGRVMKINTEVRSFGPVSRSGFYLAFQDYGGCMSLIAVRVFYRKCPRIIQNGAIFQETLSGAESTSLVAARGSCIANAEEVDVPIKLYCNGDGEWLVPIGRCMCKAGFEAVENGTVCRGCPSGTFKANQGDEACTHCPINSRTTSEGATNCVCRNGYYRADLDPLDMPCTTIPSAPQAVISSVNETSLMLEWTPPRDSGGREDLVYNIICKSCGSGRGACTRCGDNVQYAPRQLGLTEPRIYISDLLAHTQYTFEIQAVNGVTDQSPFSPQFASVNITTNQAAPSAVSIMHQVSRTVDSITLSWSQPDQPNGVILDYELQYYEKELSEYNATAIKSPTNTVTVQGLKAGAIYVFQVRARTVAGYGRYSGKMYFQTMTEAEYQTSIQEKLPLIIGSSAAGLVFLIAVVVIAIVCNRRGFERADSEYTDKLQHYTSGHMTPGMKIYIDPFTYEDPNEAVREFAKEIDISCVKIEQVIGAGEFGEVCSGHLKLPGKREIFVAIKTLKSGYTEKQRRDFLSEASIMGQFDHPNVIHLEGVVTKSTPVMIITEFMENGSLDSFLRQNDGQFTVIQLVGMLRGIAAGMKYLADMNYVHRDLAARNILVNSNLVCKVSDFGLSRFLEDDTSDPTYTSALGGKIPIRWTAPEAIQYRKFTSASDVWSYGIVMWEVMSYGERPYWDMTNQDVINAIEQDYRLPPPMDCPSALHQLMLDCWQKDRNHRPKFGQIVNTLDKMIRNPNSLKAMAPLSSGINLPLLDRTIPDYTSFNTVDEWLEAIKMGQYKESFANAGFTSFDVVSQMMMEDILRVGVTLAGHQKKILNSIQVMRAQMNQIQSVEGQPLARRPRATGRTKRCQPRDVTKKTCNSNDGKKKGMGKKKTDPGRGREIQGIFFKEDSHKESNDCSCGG

FGFR3 = FGFR3 (UniProt P22607); experiment: as above
c-Abl (mouse) = experiment: as above
Fer (mouse) = experiment: as above
FGFR1 = FGFR1 (UniProt P11362); experiment: as above
FGFR1, sequence (P11362 whole entry, looked up): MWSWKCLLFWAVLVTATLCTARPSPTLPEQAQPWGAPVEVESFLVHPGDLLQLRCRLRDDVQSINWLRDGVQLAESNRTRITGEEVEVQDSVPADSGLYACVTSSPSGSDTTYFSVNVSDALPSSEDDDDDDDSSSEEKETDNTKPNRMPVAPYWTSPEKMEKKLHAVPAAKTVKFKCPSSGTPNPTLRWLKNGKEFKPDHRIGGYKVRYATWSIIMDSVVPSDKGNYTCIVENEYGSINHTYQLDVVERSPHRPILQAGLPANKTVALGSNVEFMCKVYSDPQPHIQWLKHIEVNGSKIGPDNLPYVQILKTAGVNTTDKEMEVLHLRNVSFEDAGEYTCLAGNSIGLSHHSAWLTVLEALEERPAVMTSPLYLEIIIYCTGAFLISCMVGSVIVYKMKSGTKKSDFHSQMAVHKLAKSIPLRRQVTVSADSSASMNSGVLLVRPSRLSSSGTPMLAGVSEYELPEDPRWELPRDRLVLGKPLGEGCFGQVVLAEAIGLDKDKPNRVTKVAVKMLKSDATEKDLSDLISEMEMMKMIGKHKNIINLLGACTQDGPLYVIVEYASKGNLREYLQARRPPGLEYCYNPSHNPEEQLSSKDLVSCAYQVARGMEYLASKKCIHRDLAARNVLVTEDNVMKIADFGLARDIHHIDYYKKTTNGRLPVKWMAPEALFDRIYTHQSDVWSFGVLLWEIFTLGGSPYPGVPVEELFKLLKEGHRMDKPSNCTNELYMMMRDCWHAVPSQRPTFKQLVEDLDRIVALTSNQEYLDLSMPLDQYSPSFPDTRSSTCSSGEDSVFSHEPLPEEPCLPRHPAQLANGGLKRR

MERTK = MERTK (UniProt Q12866); experiment: as above
MERTK, sequence (Q12866 whole entry, looked up, the tested form may be a part): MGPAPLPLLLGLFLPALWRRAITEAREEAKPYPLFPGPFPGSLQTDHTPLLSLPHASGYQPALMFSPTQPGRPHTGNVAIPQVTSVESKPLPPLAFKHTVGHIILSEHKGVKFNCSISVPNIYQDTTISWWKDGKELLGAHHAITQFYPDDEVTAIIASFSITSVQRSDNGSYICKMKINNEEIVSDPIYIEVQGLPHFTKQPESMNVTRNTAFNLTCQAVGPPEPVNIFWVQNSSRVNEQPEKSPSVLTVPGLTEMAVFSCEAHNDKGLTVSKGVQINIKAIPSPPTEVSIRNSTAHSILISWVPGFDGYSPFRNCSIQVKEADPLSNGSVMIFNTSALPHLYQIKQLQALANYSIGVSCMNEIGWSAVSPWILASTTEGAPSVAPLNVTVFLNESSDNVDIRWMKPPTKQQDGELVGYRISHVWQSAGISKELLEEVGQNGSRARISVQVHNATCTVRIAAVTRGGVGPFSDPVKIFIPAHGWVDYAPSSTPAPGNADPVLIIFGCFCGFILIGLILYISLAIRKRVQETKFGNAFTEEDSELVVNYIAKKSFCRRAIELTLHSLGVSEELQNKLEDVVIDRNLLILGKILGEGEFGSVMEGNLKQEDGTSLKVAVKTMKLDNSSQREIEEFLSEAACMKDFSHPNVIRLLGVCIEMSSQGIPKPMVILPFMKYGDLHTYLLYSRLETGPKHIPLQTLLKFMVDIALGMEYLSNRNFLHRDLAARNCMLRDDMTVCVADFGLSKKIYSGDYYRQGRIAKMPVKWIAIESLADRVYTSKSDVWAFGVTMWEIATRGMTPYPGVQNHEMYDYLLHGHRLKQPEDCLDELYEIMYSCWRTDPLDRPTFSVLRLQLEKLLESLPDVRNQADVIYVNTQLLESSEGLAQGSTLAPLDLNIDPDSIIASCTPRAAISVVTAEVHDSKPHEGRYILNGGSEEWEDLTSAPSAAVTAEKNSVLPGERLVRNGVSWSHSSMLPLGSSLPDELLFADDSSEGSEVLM
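For SH2 binding enrichment of the phosphorylated peptide, bacterial display in this document: peptide library displayed on the E. coli surface as eCPX fusions, selected cells deep-sequenced, score is each peptide's frequency after selection divided by its frequency in the input.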
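For phosphorylation enrichment, bacterial display in this document: 11-residue human phosphosite peptides and single-mutation variants displayed on the E. coli surface, counted by deep sequencing, each peptide's frequency after selection divided by its frequency in the unselected input library; frequency after pTyr selection over input frequency; kinase dosed for 20-30% of maximal phosphorylation in three min.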

Grb2 SH2, sequence (P62993 whole entry, looked up): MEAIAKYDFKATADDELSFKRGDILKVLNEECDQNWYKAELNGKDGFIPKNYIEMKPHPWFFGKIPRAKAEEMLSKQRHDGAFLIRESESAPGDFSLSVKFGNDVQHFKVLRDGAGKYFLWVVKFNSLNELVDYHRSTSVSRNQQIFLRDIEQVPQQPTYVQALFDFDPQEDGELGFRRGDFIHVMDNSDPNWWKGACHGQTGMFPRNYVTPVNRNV

Sequence	SH2 binding enrichment (Grb2 SH2)	SH2 binding enrichment (c-Src SH2)	SH2 binding enrichment (SHP2-C SH2)	phosphorylation enrichment (c-Src)	phosphorylation enrichment (AncSZ)	phosphorylation enrichment (EPHB1)	phosphorylation enrichment (Fes)	phosphorylation enrichment (Fyn)	phosphorylation enrichment (Jak2)	phosphorylation enrichment (Hck)	phosphorylation enrichment (EPHB2)	phosphorylation enrichment (FGFR3)	phosphorylation enrichment (c-Abl (mouse))	phosphorylation enrichment (Fer (mouse))	phosphorylation enrichment (FGFR1)	phosphorylation enrichment (MERTK)
GDYYCYLAEVA [YWHAG_Y133_R132C]	0.851	0.681	0.862	4.14	5.32	13	1.64	4.95	6.33	4.66	14.7	12.3	5.22	5.61	13.5	7.27
FQRLQYIKQLG [SAMHD1_Y146_R145Q]	0.867	0.422	0.666	0.476	0.715	0.92	0.854	0.374	0.934	0.418	0.705	0.517	0.665	0.453	0.451	0.404
VGTKWYMAPEV [ACVRL1_Y375_R374W]	0.956	0.737	0.674	0.416	0.899	1.78	0.764	0.364	0.963	0.458	1.93	0.747	0.726	0.374	0.827	2.9
GFRPVYSEDEQ [CHST6_Y362_YF]	0.904	0.645	0.73	0.836	1.35	0.754	1.49	0.592	1.47	0.615	0.699	0.835	1.27	0.617	0.584	0.559
QAEELYFGKMG [YES1_Y159_W158L]	0.795	0.483	0.455	3.55	2.15	0.861	1.55	3.61	1.14	5.82	0.837	1.55	2.25	0.747	1.49	1.87
ESTPLYPMLFG [SCLY_Y280_F276S]	0.931	0.554	0.891	0.47	0.768	0.686	0.969	0.6	1.09	0.503	0.508	8.03	0.619	0.507	11.7	2.23
HYGNNYRDVLQ [MACC1_Y803]	0.691	0.568	1.79	0.652	0.622	0.643	0.576	0.353	0.661	0.694	0.559	0.423	0.438	0.565	0.444	0.612
HHFAAYFQQGD [GPI_Y351_R347H]	1.21	0.661	0.898	0.725	0.906	0.581	1.13	0.418	0.989	0.549	0.602	1.19	0.945	0.435	0.669	0.475
EILTQYEAMAS [GFAP_Y242_R239L]	0.853	2.84	0.638	0.503	1.02	0.547	0.976	0.529	0.846	0.526	0.452	0.608	0.713	0.514	0.485	0.471
YPQARYHWLVL [APTX_Y214_K211Q]	1.27	0.98	1.43	0.411	0.937	0.72	1.14	0.449	0.98	0.531	0.586	1.48	0.744	0.612	1.96	1.05
KNGSNYVVKGN [KIT_Y823_D820G]	0.837	0.527	0.782	0.482	0.526	0.346	0.576	0.449	0.484	0.45	0.38	0.368	0.411	0.375	0.435	0.466
AGIVDYNIIGW [MYH7_Y588]	0.562	0.566	0.589	0.454	1.07	0.636	1.18	0.497	0.877	0.497	0.431	0.909	0.619	0.439	0.873	0.349
QDEHGYISLCF [HSPB1_Y133_R136L]	0.637	0.485	0.579	1.16	2.22	1.56	3.71	1.05	3.37	1.17	1.22	2.09	2.42	1.08	1.48	1.36
YLQEIHNSNNQ [FGG_Y140_Y140H]	0.802	0.578	0.871	0.414	0.618	0.427	0.63	0.431	0.563	0.432	0.431	0.63	0.445	0.349	0.404	0.484
ANLAKYGNPNE [BCHE_Y505_F502L]	0.645	0.425	0.639	0.306	0.778	0.492	0.779	0.385	0.622	0.403	0.455	0.65	0.565	0.391	0.392	0.379
KPMDTYYDSTR [DYNC2H1_Y2230]	0.903	0.898	0.66	0.7	0.874	0.632	0.774	0.543	0.545	1.13	0.675	0.76	0.678	0.447	0.998	0.498
GPSTPYTKSKC [SMARCC2_Y324_R329C]	1.24	0.76	1.06	0.36	0.584	0.35	0.534	0.403	0.573	0.395	0.408	0.479	0.55	0.393	0.362	0.396
